Results as given in US20090022728A1 (RINAT NEUROSCIENCE, published 2009).
Changes are numbered by the printed parent chain.

B1: 9TL variant 22-T/I Fab (Fab, V domains shown)
VH: QVQLVQSGAEVKKPGASVKVSCKASGYYTEAYYIHWVRQAPGQGLEWMGRIDPATGNTKYAPRLQDRVTMTRDTSTSTVYMELSSLRSEDTAVYYCASLYSLPVYWGQGTTVTVSS
VL: DVVMTQSPLSLPVTLGQPASISCKSSQSLLYSDAKTYLNWFQQRPGQSPRRLIYQISRLDPGVPDRFSGSGSGTDFTLKISRVEAEDVGVYYCLQGTHYPVIFGQGTRLEIKR
notes: Fab; human IgG2 CH1 and kappa CL
B2: 9TL variant M1 Fab (Fab, V domains shown)
VH: B1 VH
VL: B1 VL with L94M, I102L
notes: as for B1
B3: 9TL variant M2 Fab (Fab, V domains shown)
VH: B1 VH
VL: B1 VL with L94N, I102L
notes: as for B1
B4: 9TL variant M3 Fab (Fab, V domains shown)
VH: B1 VH
VL: B1 VL with L94C, I102L
notes: as for B1
B5: 9TL variant M4 Fab (Fab, V domains shown)
VH: B1 VH
VL: B1 VL with L94F, I102L
notes: as for B1
B6: 9TL variant M6 Fab (Fab, V domains shown)
VH: B1 VH
VL: B1 VL with L94K, I102L
notes: as for B1
B7: 9TL variant M7 Fab (Fab, V domains shown)
VH: B1 VH
VL: B1 VL with L94S, I102L
notes: as for B1
B8: 9TL variant M8 Fab (Fab, V domains shown)
VH: B1 VH
VL: B1 VL with L94Q, I102L
notes: as for B1
B9: 9TL variant M9 Fab (Fab, V domains shown)
VH: B1 VH
VL: B1 VL with L94G, I102L
notes: as for B1
B10: 9TL variant M10 Fab (Fab, V domains shown)
VH: B1 VH
VL: B1 VL with L94S, I102L
notes: Fab; human IgG2 CH1 and kappa CL; same printed substitution as M7
B11: 9TL variant M11 Fab (Fab, V domains shown)
VH: B1 VH
VL: B1 VL with G96S, I102L
notes: as for B1
B12: 9TL variant M12 Fab (Fab, V domains shown)
VH: B1 VH
VL: B1 VL with G96T, I102L
notes: as for B1
B13: 9TL variant M13 Fab (Fab, V domains shown)
VH: B1 VH
VL: B1 VL with T97S, I102L
notes: as for B1
B14: 9TL variant M14 Fab (Fab, V domains shown)
VH: B1 VH
VL: B1 VL with H98L, I102L
notes: as for B1
B15: 9TL variant M15 Fab (Fab, V domains shown)
VH: B1 VH
VL: B1 VL with Y99P, I102L
notes: as for B1
B16: 9TL variant M16 Fab (Fab, V domains shown)
VH: B1 VH
VL: B1 VL with Y99A, I102L
notes: as for B1
B17: 9TL variant M17 Fab (Fab, V domains shown)
VH: B1 VH
VL: B1 VL with Y99W, I102L
notes: as for B1
B18: 9TL variant M18 Fab (Fab, V domains shown)
VH: B1 VH
VL: B1 VL with Y99Q, I102L
notes: as for B1
B19: 9TL variant M19 Fab (Fab, V domains shown)
VH: B1 VH
VL: B1 VL with Y99M, I102L
notes: as for B1
B20: 9TL variant M20 Fab (Fab, V domains shown)
VH: B1 VH
VL: B1 VL with Y99S, I102L
notes: as for B1
B21: 9TL variant M21 Fab (Fab, V domains shown)
VH: B1 VH
VL: B1 VL with Y99E, I102L
notes: as for B1
B22: 9TL variant M22 Fab (Fab, V domains shown)
VH: B1 VH
VL: B1 VL with V101L, I102L
notes: as for B1
B23: 9TL variant M23 Fab (Fab, V domains shown)
VH: B1 VH
VL: B1 VL with V101K, I102L
notes: as for B1
B24: 9TL variant M24 Fab (Fab, V domains shown)
VH: B1 VH
VL: B1 VL with V101H, I102L
notes: as for B1
B25: 9TL variant M25 Fab (Fab, V domains shown)
VH: B1 VH
VL: B1 VL with V101T, I102L
notes: as for B1
B26: 9TL variant M26 Fab (Fab, V domains shown)
VH: B1 VH
VL: B1 VL with V101A, I102L
notes: as for B1
B27: 9TL variant M27 Fab (Fab, V domains shown)
VH: B1 VH
VL: B1 VL with V101E, I102L
notes: as for B1
B28: 9TL variant C6 new Fab (Fab, V domains shown)
VH: B1 VH
VL: B1 VL with I102T
notes: as for B1

These binders were tested against T1, biotinylated Aβ1-40 peptide (biotinylated (N-biotinylated in Example 7)) (assay: SPR, Fab over Aβ1-40 on SA chip; kon may be assumed = 9TL (footnote 2)).
T1 construct: captured on streptavidin (SA) chip; also called Biotinylated Aβ peptide 1-40; Aβ1-40 on SA chip
T1 sequence (peptide, as listed by the source): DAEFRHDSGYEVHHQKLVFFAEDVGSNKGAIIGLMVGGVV
Protocol: (§1) Affinities of 9TL Fab fragment and its variants Fab fragments were determined by Surface Plasmon Resonance (SPR) system (BIAcore 3000™, BIAcore, Inc., Piscaway, N.J.). SA chips (streptavidin) were used according to the supplier's instructions. Biotinylated Aβ peptide 1-40 was diluted into HBS-EP (10 mM HEPES pH 7.4, 150 mM NaCl, 3 mM EDTA, 0.005% P20) and injected over the chip at a concentration of 0.005 mg/mL. Using variable flow time across the individual chip channels, two ranges of antigen density were achieved: 10-200 response units (RU) for detailed kinetic studies and 500-600 RU for concentration studies and screening. […] HBS-EP buffer was used as running buffer for all the BIAcore assays. […] The concentrations of the Fab proteins were determined by ELISA and/or SDS-PAGE electrophoresis using a standard Fab of known concentration (determined by amino acid analysis). Kinetic association rates (kₒₙ) and dissociation rates (koff) were obtained simultaneously by fitting the data to a 1:1 Langmuir binding model (Karlsson, R. Roos, H. Fagerstam, L. Petersson, B. (1994). Methods Enzymology 6. 99-110) using the BIAevaluation program. Equilibrium dissociation constant (KD) values were calculated as koff/kₒₙ.
(§2) All amino acid substitutions of the variants shown in Table 3 are described relative to the sequence of 9TL. KD and other kinetic parameters were determined by BIAcore analysis described above with Aβ₁₋₄₀ immobilized on SA chip.
In the case of B1, the kon is reported as 318000 M⁻¹ s⁻¹.
With B2 the kon was 318000 M⁻¹ s⁻¹.
B3 was tested, and the kon was 318000 M⁻¹ s⁻¹.
B4 gave a kon of 318000 M⁻¹ s⁻¹.
B5 showed a kon of 318000 M⁻¹ s⁻¹.
In the case of B6, the kon is reported as 318000 M⁻¹ s⁻¹.
For B7, the kon was 318000 M⁻¹ s⁻¹.
In the case of B8, the kon is reported as 318000 M⁻¹ s⁻¹.
Work on B9 yielded a kon of 318000 M⁻¹ s⁻¹.
With B10 the kon was 318000 M⁻¹ s⁻¹.
B11 gave a kon of 318000 M⁻¹ s⁻¹.
With B12 the kon was 318000 M⁻¹ s⁻¹.
B13 gave a kon of 318000 M⁻¹ s⁻¹.
In the case of B14, the kon is reported as 318000 M⁻¹ s⁻¹.
In the case of B15, the kon is reported as 318000 M⁻¹ s⁻¹.
Work on B16 yielded a kon of 318000 M⁻¹ s⁻¹.
Work on B17 yielded a kon of 318000 M⁻¹ s⁻¹.
For B18, the kon was 318000 M⁻¹ s⁻¹.
Work on B19 yielded a kon of 318000 M⁻¹ s⁻¹.
With B20 the kon was 318000 M⁻¹ s⁻¹.
Work on B21 yielded a kon of 318000 M⁻¹ s⁻¹.
B22 showed a kon of 318000 M⁻¹ s⁻¹.
Work on B23 yielded a kon of 318000 M⁻¹ s⁻¹.
In the case of B24, the kon is reported as 318000 M⁻¹ s⁻¹.
B25 showed a kon of 318000 M⁻¹ s⁻¹.
B26 was tested, and the kon was 318000 M⁻¹ s⁻¹.
B27 gave a kon of 318000 M⁻¹ s⁻¹.

Each binder was assayed against T1, biotinylated Aβ1-40 peptide (assay: SPR, Fab over Aβ1-40 on SA chip; KD=koff/kon).
Protocol: as §1, §2
For B1, the Kd was 1.45 nM.
In the case of B28, the Kd is reported as 2.58 nM.
B2 gave a Kd of 2.7 nM.
B3 showed a Kd of 3.46 nM.
B4 showed a Kd of 4.09 nM.
Work on B5 yielded a Kd of 3.13 nM.
Binder B6 has a Kd of 12.9 nM.
B7 was tested, and the Kd was 18.9 nM.
B8 showed a Kd of 21.4 nM.
B9 showed a Kd of 24.5 nM.
In the case of B10, the Kd is reported as 26.1 nM.
B11 was tested, and the Kd was 6.29 nM.
B12 showed a Kd of 10.4 nM.
In the case of B13, the Kd is reported as 1.23 nM.
Work on B14 yielded a Kd of 5.03 nM.
B15 gave a Kd of 2.11 nM.
Work on B16 yielded a Kd of 2.2 nM.
B17 was tested, and the Kd was 3.14 nM.
Work on B18 yielded a Kd of 4.72 nM.
With B19 the Kd was 5.35 nM.
B20 showed a Kd of 6.29 nM.
B21 showed a Kd of 15.7 nM.
B22 gave a Kd of 12.6 nM.
Binder B23 has a Kd of 15.7 nM.
Binder B24 has a Kd of 18.9 nM.
B25 was tested, and the Kd was 25.2 nM.
Binder B26 has a Kd of 28.3 nM.
B27 was tested, and the Kd was 37.7 nM.

What follows are binders tested against T1, biotinylated Aβ1-40 peptide (assay: SPR, Fab over Aβ1-40 on SA chip).
Protocol: as §1, §2
With B1 the koff was 0.00046 s⁻¹.
Binder B28 has a koff of 0.00092 s⁻¹ and a kon of 356000 M⁻¹ s⁻¹.
B2 was tested, and the koff was 0.00086 s⁻¹.
B3 was tested, and the koff was 0.0011 s⁻¹.
B4 was tested, and the koff was 0.0013 s⁻¹.
In the case of B5, the koff is reported as 0.000995 s⁻¹.
For B6, the koff was 0.0041 s⁻¹.
B7 gave a koff of 0.006 s⁻¹.
In the case of B8, the koff is reported as 0.0068 s⁻¹.
B9 showed a koff of 0.0078 s⁻¹.
For B10, the koff was 0.0083 s⁻¹.
With B11 the koff was 0.002 s⁻¹.
In the case of B12, the koff is reported as 0.0033 s⁻¹.
Work on B13 yielded a koff of 0.00039 s⁻¹.
In the case of B14, the koff is reported as 0.0016 s⁻¹.
With B15 the koff was 0.00067 s⁻¹.
For B16, the koff was 0.0007 s⁻¹.
B17 was tested, and the koff was 0.001 s⁻¹.
B18 showed a koff of 0.0015 s⁻¹.
B19 was tested, and the koff was 0.0017 s⁻¹.
Binder B20 has a koff of 0.002 s⁻¹.
In the case of B21, the koff is reported as 0.005 s⁻¹.
B22 showed a koff of 0.004 s⁻¹.
In the case of B23, the koff is reported as 0.005 s⁻¹.
With B24 the koff was 0.006 s⁻¹.
Work on B25 yielded a koff of 0.008 s⁻¹.
B26 showed a koff of 0.009 s⁻¹.
For B27, the koff was 0.012 s⁻¹.
